The values that follow come from US8993248B2, “Truncated human vitamin D binding protein and mutation and fusion thereof and related materials and methods of use” (Abbott Laboratories, priority 2011, dated 2015).

Numbering of substitutions follows the chain as printed. Numbers in names are those of the source.

The nature of data set [1]: Reactivity of hDBP-hFc fusion proteins to 25-hydroxy vitamin D3-3-biotin (ELISA). The data set is classed as binding. The conditions noted are these: fusion protein produced as a dimer by HEK 293F transient transfection. An excerpt: The hDBP3 open reading frame (ORF) was amplified by PCR and linked to hFc, which contained a short hinge region with the first six amino acids deleted (to increase secretion), through SOEing (splicing by overlapping extension) PCR. The fusion protein ORF was cloned in pBOS vector (acquired from Abbott Bioresearch Center, Worcester, Mass.) through Nru I/Not I restriction digestion. Secretion of the fusion protein was directed by IgG heavy chain secretion signal peptide. The fusion protein was produced as a dimer by human embryonic kidney (HEK) 293F transient transfection. However, its reactivity to 25-hydroxy vitamin D3-3-biotin was weak.
The hDBP4 ORF was amplified from the pYD vector and linked to hFc through SOEing PCR. The fusion protein ORF was cloned in pBOS vector through Nru I/Not I restriction digestion. Secretion of the fusion protein was directed by IgG heavy chain secretion signal peptide. The fusion protein was produced as a dimer by HEK 293F transient transfection. Its reactivity to 25-hydroxy vitamin D3-3-biotin was confirmed by ELISA.
The hDBP3 mutant 3-6 was amplified from a pYD vector. The hFc with 56 amino acids from hDBP4 on its N-terminus was amplified from pBOS hDBP4-hFc. The two fragments were linked together through SOEing PCR. The resulting DNA vector was named pBOS hDBP4-hFc 3-6, which contained the two point mutations (S76A, S79A). […]

Data set [2] in a line: Storage stability of the protein by SDS-PAGE. Type of data set: physicochemical. The conditions noted are these: protein expressed from HEK293 cells; room temperature, 2-8° C. and 37° C.; day 0, 3, 5, 7. The method, then: The hDBP4-hFc 3-6 protein expressed from HEK293 cells was tested for stability. hDBP4-hFc 3-6 protein (about 100 μl of 0.5 mg/ml) was stored at room temperature, 2-8° C., and 37° C. A sample of about 20 μl of hDBP4-hFc 3-6 was taken at day 0, 3, 5, and 7, mixed with 20 μl reduced 2× Laemmli sample buffer, and stored at 2-8° C. until SDS-PAGE gel analysis.

Data set [3] has as its target T1, yeast surface displayed hDBP3 (Homo sapiens, UniProt P02774).
T1 construct: made in house; host or cells: yeast (surface display, pYD vector)
T1 sequence (P02774 17-227): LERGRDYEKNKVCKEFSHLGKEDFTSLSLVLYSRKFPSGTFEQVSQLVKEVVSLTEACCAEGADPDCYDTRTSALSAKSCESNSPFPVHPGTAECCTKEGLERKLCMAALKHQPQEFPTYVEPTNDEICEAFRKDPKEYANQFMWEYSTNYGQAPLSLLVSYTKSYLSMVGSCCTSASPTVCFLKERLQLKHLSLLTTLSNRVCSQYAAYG
The data set is described as follows: Inhibition assay of free vitamin Ds on yeast surface displayed hDBP3. The note with it: for Ki: free vitamin D as inhibitor, yeast surface displayed hDBP3. The data set is classed as binding. The method, then:
Binding affinity of the hDBP3 truncate to vitamin D2, vitamin D3, 25-hydroxy vitamin D2, and 25-hydroxy vitamin D3 was determined.

The target in data set [4] is T2, hDBP4-hFc 3-6 protein coated on microparticles (Homo sapiens, UniProt P02774, S92A/S95A).
T2 construct: made in house
T2 sequence (P02774 with tags, fused parts or gaps S92A/S95A): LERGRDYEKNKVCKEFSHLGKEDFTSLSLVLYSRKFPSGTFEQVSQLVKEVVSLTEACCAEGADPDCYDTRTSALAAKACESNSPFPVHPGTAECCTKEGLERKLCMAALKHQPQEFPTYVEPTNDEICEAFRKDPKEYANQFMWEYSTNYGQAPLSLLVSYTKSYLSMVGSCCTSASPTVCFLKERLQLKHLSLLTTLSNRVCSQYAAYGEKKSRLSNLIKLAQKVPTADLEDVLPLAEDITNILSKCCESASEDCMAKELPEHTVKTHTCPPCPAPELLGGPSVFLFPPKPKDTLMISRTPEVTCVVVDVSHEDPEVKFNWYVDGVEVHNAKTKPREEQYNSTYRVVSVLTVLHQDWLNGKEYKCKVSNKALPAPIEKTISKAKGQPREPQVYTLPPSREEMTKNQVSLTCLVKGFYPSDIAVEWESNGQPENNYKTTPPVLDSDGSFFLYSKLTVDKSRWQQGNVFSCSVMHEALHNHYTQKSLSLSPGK
The experiment in a line: Effect of displacement agent on microparticle DBP assay on the Abbott ARCHITECT instrument. The data set is classed as binding. The note with it: ANSA-present versus ANSA-free; FIG. 16. Here is the method:
For this study hDBP4-hFc 3-6 protein was coated on microparticles and binding was assessed on the Abbott ARCHITECT instrument to study the effect of adding a non-competitive displacement agent comprising 8-anilino-1-napthalenesulfonic acid ammonium salt (ANSA). ANSA separates any vitamin D metabolite in the sample from vitamin D binding protein to which the vitamin D metabolite is bound, was investigated. Microparticle diluent was used to remove ANSA in one condition (ANSA-free) but not the other (ANSA-present).

Data set [5] is described as follows: Ligand titration of yeast surface displayed hDBP truncates. The data set is classed as binding, human. The note with it: for Binding to the ligand 25-hydroxy vitamin D3-3-biotin, in words: compared to full-length hDBP; for EC50: yeast surface displayed hDBP GC1S constructs, ligand 25-OH vitamin D3-3-biotin, read-out: Ag50 (antigen concentration at 50% of maximal binding signal). Here is the method: A total of five hDBP truncates and the full-length hDBP (Table I) were cloned into pYD yeast display vector (Invitrogen) by polymerase chain reaction (PCR) and Nco I/Xho I restriction digestion.
Binding affinity to 25-hydroxy vitamin D3-3-biotin of each construct was measured by ligand titration (Table II). The Ag50 is the value (antigen concentration) generated at 50% of maximal binding signal, thus translating into the highest affinity. This testing was performed similar to that detailed in Friguet et al., J. Immunolog. Methods, 77:305-319 (1985).

Data set [6] can be described thus: Screen of the yeast-displayed hDBP3 mutation library (MACS/FACS, equilibrium competition staining). Type of data set: binding, human. The note with it: relative to yeast surface-displayed hDBP3. An excerpt: The library was screened by one round of Magnetic Activated Cell Sorting (MACS) and two rounds of Fluorescence Activated Cell Sorting (FACS) with equilibrium competition staining. […] Mutant 3-6 contained two point mutations (S76A, S79A). Plasmid DNA of this clone was isolated.

The target in data set [7] is G-actin. The conditions noted are these: read-out: Binding affinity for G-actin; cited from earlier work.

As to “hDBP4-hFc 3-6: hDBP3 mutant 3-6 (S76A, S79A) plus 56 amino acids of hDBP4 fused to hFc, SEQ ID NO:10; dimer”, in data set [1], the “Reactivity to 25-hydroxy vitamin D3-3-biotin” value is “higher than wild-type fusion protein”. The “Degradation on storage (SDS-PAGE 4-20%)” value in data set [2] is “no degradation”.

In turn, `C=C1CC[C@H](O)C/C1=C/C=C1\CCC[C@]2(C)[C@@H]([C@H](C)CCCC(C)(C)O)CC[C@@H]12` [25-hydroxy Vitamin D3] showed a Ki in data set [3] of 3.8 nM.

In data set [3], `C=C1CC[C@H](O)C/C1=C/C=C1\CCC[C@]2(C)[C@@H]([C@H](C)/C=C/[C@H](C)C(C)(C)O)CC[C@@H]12` [25-hydroxy Vitamin D2] came in with a Ki of 6.4 nM.

With `C=C1CC[C@H](O)C/C1=C/C=C1\CCC[C@]2(C)[C@@H]([C@H](C)CCCC(C)C)CC[C@@H]12` [Vitamin D3], the Ki in data set [3] turned out to be 2970 nM.

In the case of `N.O=S(=O)(O)c1cccc2cccc(Nc3ccccc3)c12` [ANSA, 8-anilino-1-napthalenesulfonic acid ammonium salt], the “Effect on binding of vitamin D and tracer to DBP on the solid phase” value in data set [4] is “disturbed the binding of vitamin D from the sample and tracer to the DBP on the solid phase”.

In data set [3], `C=C1CC[C@H](O)C/C1=C/C=C1\CCC[C@]2(C)[C@@H]([C@H](C)/C=C/[C@H](C)C(C)C)CC[C@@H]12` [Vitamin D2] displayed a Ki of 1390 nM.

B1: hDBP3: hDBP truncate: domain I plus first α-helix of domain II (amino acids 1-211), SEQ ID NO:12 (protein, listed as Homo sapiens)
chain: T1 sequence (P02774 17-227)
As for B1, in data set [5], the “Binding to the ligand 25-hydroxy vitamin D3-3-biotin, in words” value was “bound to the ligand with similar affinity to the full-length hDBP” and the EC50 stood at 83 nM. In data set [3], the “Binding preference among vitamin D2, vitamin D3, 25-hydroxy vitamin D2 and 25-hydroxy vitamin D3” value was “preferentially bound to hydroxylated vitamin D213”.

B2: 3-6: hDBP3 clone with two point mutations (S76A, S79A), SEQ ID NO:2 (protein, listed as Homo sapiens)
chain: T1 sequence (P02774 17-227) with S76A, S79A
Consider B2, for which the “Increase in affinity to 25-hydroxy vitamin D3-3-biotin” value in data set [6] is on record as “six-fold increase in affinity”.

B3: hDBP4: hDBP truncate: domain I plus about half of domain II, 56 amino acids longer than hDBP3, SEQ ID NO:14 (protein, listed as Homo sapiens)
chain: LERGRDYEKNKVCKEFSHLGKEDFTSLSLVLYSRKFPSGTFEQVSQLVKEVVSLTEACCAEGADPDCYDTRTSALSAKSCESNSPFPVHPGTAECCTKEGLERKLCMAALKHQPQEFPTYVEPTNDEICEAFRKDPKEYANQFMWEYSTNYGQAPLSLLVSYTKSYLSMVGSCCTSASPTVCFLKERLQLKHLSLLTTLSNRVCSQYAAYGEKKSRLSNLIKLAQKVPTADLEDVLPLAEDITNILSKCCESASEDCMAKELPEHTV
As to B3, in data set [5], the “Binding to the ligand 25-hydroxy vitamin D3-3-biotin, in words” value is “retains binding affinity” and the EC50 turned out to be 95 nM.

B4: DBP: Naturally occurring triple-domain, monomeric serum glycoprotein that binds and transports vitamin D (protein, UniProt P02774 17-474, looked up)
Vitamin D-binding protein: LERGRDYEKNKVCKEFSHLGKEDFTSLSLVLYSRKFPSGTFEQVSQLVKEVVSLTEACCAEGADPDCYDTRTSALSAKSCESNSPFPVHPGTAECCTKEGLERKLCMAALKHQPQEFPTYVEPTNDEICEAFRKDPKEYANQFMWEYSTNYGQAPLSLLVSYTKSYLSMVGSCCTSASPTVCFLKERLQLKHLSLLTTLSNRVCSQYAAYGEKKSRLSNLIKLAQKVPTADLEDVLPLAEDITNILSKCCESASEDCMAKELPEHTVKLCDNLSTKNSKFEDCCQEKTAMDVFVCTYFMPAAQLPELPDVELPTNKDVCDPGNTKVMDKYTFELSRRTHLPEVFLSKVLEPTLKSLGECCDVEDSTTCFNAKGPLLKKELSSFIDKGQELCADYSENTFTEYKKKLAERLKAKLPDATPTELAKLVNKHSDFASNCCSINSPPLYCDSEIDAELKNIL
Regarding B4, in data set [7], the Kd is about 10 nM.

B5: hDBP0 (Full-Length): Full-length human vitamin D binding protein, allele GC1S; domains I, II, III of 191, 187, 80 amino acids (protein, UniProt P02774 17-474, looked up)
Vitamin D-binding protein: B4 Vitamin D-binding protein
modifications: allele GC1S
notes: domains I, II, III of 191, 187, 80 amino acids
For the molecule B5, in data set [5], the EC50 amounted to 65 nM.
